# Experiment: label from the status in PepcDB records
row,Sequence,protein production
1,MAAVPPENGVDGDDEREEEEEDEEEEEEEEEEENGDEAEEEPRLKYQRMGGNVPALLSNDAASCIAVAARMIALGTHDGTVRILDLLGNQVKEFRAHTAPVNDINFDTEGEYIGSCSDDGSVVINSLFTDDEKMKFDYHRPMKAISLDPDYTKKQSKRFVAGGLAGHLYMNSKKWFGNKDQVLHSGEGPIHSVKWRGSLIAWANDVGVKVYDTAKDQRVTFIEKPRGSPRPEALLPHLVWQDDTLLVIGWGTSVKIASIKSDQQQTGTFRQIQMSSLTQVDIVASFQTSYYISGIAPFGDSLVILAYIPIEGDGEKEFSSTTTLSRQGNAQRPEIRIVSWNNDELTMDALPVHGFEHYKAKDYSLAHAPFPGSSYAGGQWAAGDEPLYYIVSPKDVVIAKPRDAEDHINWLLQHGFHEKALAAVEASEGRTELIDKVGAGYLDHLIVERKYAEAASLCPKLLRGSASAWERWVFHFAQLRQLPVLVPYMPTDNPRLKDTVYEVALVALATNPSYHKELLSAVKSWPRSVYSALTVISAIEPQLNTSSMTDALKEALAELYVIDGQYQKAFSLYADLLKPEVFDFIEKYSLHEAIRGKVVQLMLLDCKRATVLFIQNRDLIPPSEVVPQLLKAGKNPQVLKAGKKCDSRYYLYLYLHALFEVSHDTGKDFHDMQVELYAEYDTKMLLPFLRSSQHYKLEKAYELCVKKDFLREQVFVLGRMGNAKQALAVIINKLGDIEEAVEFVSMQHDDDLWEELIKQCLNKPEMVGLLLEHTVGNLDPLYIVNMVPNGLEIPRLRDRLVKIVTDYRTETSLRHGCNDILKTDIVNLLVKCFNEARRGVCLSHEDDDSRAKREDNNRSSFSQRMVVDKSLSIKMTEVKSKTRGDTRCCMCFDPVSIRGDTVVVFFCCHAYHETCLMDAAFSNNNHKTTKGSSGYEYSYDNGVDEEEEDEEEDEDGDGDRPGRSRLRCILCTTAAAASAR,failed
2,MAAVVAATALKSRGARNARVLRGILAGATANKVSHNRTRALQSHSSSEGKEEPEPLSPELEYIPRKRGKNPMKAVGLAWYSLYTRTWLGYLFYRQQLRRARNRYPKGHSKTQPRLFNGVKVLPIPVLSDNYSYLIIDTQAQLAVAVDPSDPRAVQASIEKEGVTLVAILCTHKHWDHSGGNRDLSRRHRDCRVYGSPQDGIPYLTHPLCHQDVVSVGRLQIRALATPGHTQGHLVYLLDGEPYKGPSCLFSGDLLFLSGCGRTFEGNAETMLSSLDTVLGLGDDTLLWPGHEYAEENLGFAGVVEPENLARERKMQWVQRQRLERKGTCPSTLGEERSYNPFLRTHCLALQEALGPGPGPTGDDDYSRAQLLEELRRLKDMHKSK,failed
3,MACFSGTVYLVACRFRSRGNSMPYKISQYVLDDATPDDSGIVQGDMDVFIHQLMTLMEASQQGYALFDGNDELRFANSAFRAALGIGRHEFPSWVDMMRSGYRTTTGTSIETSDFELWLRSAKTRRGKLPFRTIETSLKDGRWMLTTETTLPGGWMLCVITDVSELGIELRDLRQERDRALKSALSDELTGLGNRRYAMDTLNHLLGPNKAQALAVIIMDIDHFKSVNDRFGHAYGDLVLKDFAARLSATAGRDDLLGRIGGEEFLLVLSGSRMHSADSLMRQLLSSLAQASPLGDRPDFRYSCSAGIAYANPGESASEVLRHADTALYEAKNTGRNRYVIYATVP,failed
4,MACGATLKRPMEFEAALLSPGSPKRRRCAPLPGPTPGLRPPDAEPPPLQMQTPPASLQQPAPPGSERRLPTPEQIFQNIKQEYNRYQRWRHLEVVLSQSEACTSETQPSSSALTAPGSPGAFWMKKDQPTFTLRQVGIICERLLKDYEDKVREEYEQILSTKLAEQYESFVKFTHDQIMRRYGTRPTSYVS,failed
5,MACGEFSLIARYFDRVRSSRLDVELGIGDDCALLNIPEKQTLAISTDTLVAGNHFLPDIDPADLAYKALAVNLSDLAAMGADPAWLTLALTLPDVDEAWLESFSDSLFDLLNYYDMQLIGGDTTRGPLSMTLGIHGFVPMGRALTRSGAKPGDWIYVTGTPGDSAAGLAILQNRLQVADAKDADYLIKRHLRPSPRILQGQALRDLANSAIDLSDGLISDLGHIVKASDCGARIDLALLPFSDALSRHVVPEQALRWALSGGEDYELCFTVPELNRGALDVALGHLGVPFTCIGQMTADIEGLCFIRDGEPVTLDWKGYDHFATP,not failed
6,MACGKGHDIMEVASPYGWKKNPQKVLDFYNQRRRQLFEVYPNKAHKALAELEKHYQVNIITQNVDDLHERAGSSRILHLHGELLSVRSEKDPNLVYRWEKDLNLGDLAKDKSQLRPDIVWFGEAVPLLKEAISLVKQAHLLIIIGTSLQVYPAASLYTHAHKDALIYYIDPKAKNAHLPQNVQCINESAVHAMQDLMPKLIEMAS,failed
7,MACSRFERQNMFKLCLDFTQKRAPMSQKQPINLVLSGGGTRAIGHLAIISALLERGFEIRAISGSSGGAIVGSLLASGKSPKECYDLLLKTNFVRLFAFKMSQGGLFHLKRGEAYLEKILGIKEFSELSLPLYVCVVDLKEGRPFFLSEGNIAKAVIASSSISPFMRPVEMEGRMGADGGIMNNLPIEPFLEENLPIIGINVNPNRPFHSHSMVSIAKRALFLQFYSNILERSKLCSLYLEPSGIDAYTIYDLKSLESVYNLCQEWCETNLDALIGDVPLHVLRP,failed
8,MADEMMVKELEEVVVRFSGDSGDGMQLAGNIFSNVSATVGNDICTFPDYPADIRAPQGSLTGVSGFQVHVGASKIFTPGDHCHVLVAMNPAALKTQIKFCKPQGLVITDSDSFGEKDLEKAQFKTGNPFEEMGITQQVLEVPISSMCKESLKNSGLDNKAMLRCKNMFALGLVCWLFNRNLSAAEKMLNEKFAKKPEIAAANIKVLNDGYNYGANTHASTSTYKIESKTPKAAGLYTDINGNKATSYGLIAAAEKAGLELYLGSYPITPATDILHELAKHKSLGVKTVQCEDEIAGCASAVGAAFAGDLAVTTTSGPGVCLKSEAMNLAVIAELPLVVVNVQRGGPSTGMPTKSEQTDLLQALYGRNGESPMPVIAATSPTNCFDAAYMAAKIALEHMTPVVLLTDAFIANGSAAWKLPNMDEYPAINPPYVTPDMIGTWTPFQRNEKTGVRYWAVPGTEGFMHRIGGLEKSSETGVISTEPENHQKMTLLRQAKVDKIADSIPEQEVQGDADADLLVVGWGGTYGHLYSAVEHMRKNGKKVALAHFQYINPLPKNTAEILKKYKKIVVAEQNLGQFAGYLRMKVPGLNISQFNQVKGQPFVTRELVEAFTKLLEE,not failed
9,MADFQVVVGDDDGTAYSFEVDGQDANRFIGRAIGETVDGDAVGLPGYELEITGGSDQSGRPMHGDINGAETAAILSEGGVGFNPTVDGERKRVTVRGAEVSEDTRQINASIVSRGEQSIDDLLGGEDDE,failed
10,MADGIYGSFENLKKHAGAMTLETYMRFNAKLSEAKDEMGAKEYEEFTKELKKLTNAKLAYGDSNGNIDYDGLSPAKREEMKKVSMGLQPYFDKLNGHKSSKEVLTQEEFDRYMEALMTHEIVRVKTKSTGAIKIEEVPEAYKERFIKAEQFMEYVDEKVR,not failed
11,MADIINNIVGGRYYILELIGRGGSAIVYKARDIHNGGIYALKKYITSDPANRKRLLEGMERELEVLKNCTHPVLPKIFDLIKIEDAFFLVMEYIDGIDLKKYVDEYGTLSTKMLIKVMEQVCSGFYYLHSLSPAIVYRDLKPANIILCKDGRIKLIDFGIAKRYRTDIDVDKLALGSKGFAAPEQFGDSKGKGLYNTDIRADIYGIGTTMYYLKTAKTYNSVPGSKSLYSFKDYFKTSHKLRKIIKKCTKNNPDLRYQSCIEILCSIKTLHIIGK,failed
12,MADIQGEDLESLYGYAKQLFDGGEIAAARNVYQLLSTLDHWNFDYLLALGLCHQRLGAHNEAVVCFGRAGLIKVDDPRAAFYAGISYRLDGNAEYASKAFKAAINWCGEQIDYQAIKASAVDMLALQQEEVPLEHHHHHH,not failed
13,MADLSFIEDTVAFPEKEEDEEEEEEGVEWGYEEGVEWGLVFPDANGEYQSPINLNSREARYDPSLLDVRLSPNYVVCRDCEVTNDGHTIQVILKSKSVLSGGPLPQGHEFELYEVRFHWGRENQRGSEHTVNFKAFPMELHLIHWNSTLFGSIDEAVGKPHGIAIIALFVQIGKEHVGLKAVTEILQDIQYKGKSKTIPCFNPNTLLPDPLLRDYWVYEGSLTIPPCSEGVTWILFRYPLTISQLQIEEFRRLRTHVKGAELVEGCDGILGDNFRPTQPLSDRVIRAAFQLEHHHHHH,not failed
14,MADLYTVVSSIILLFIVLDPVGVSPYVASIVARRPEGERERIVRTALASAGAILVAFTLIGVAVLDILGVSMDEFKVAAGLLLLIYATADLFEIKIGYSEPSGDEVAIFPLATPLLAGPGSIATVMYIMGSSGIAVALIAILVNLVLAYPILHASLKLVRLLGRHGSLLVAKFTAFLMVGFAVSIIFDGLRGIVPGVFS,failed

# From a protein production outcome set (Wang et al. 2014)
